Laboratory results from patent publication US20080095767A1 (PEPTECH, published 2008).

Legend:
[1] = target: T1, human TNF-α (Peprotech Cat No: 300-01A) (human, UniProt P01375 77-233); experiment: cell-based or functional assay
[2] = target: T1, human TNF-α (Peprotech Cat No: 300-01A); experiment: ELISA, TNF-α coated on the plate
Method: TNF-α (Peprotech Cat No: 300-01A) was diluted to 1 μg/mL in carbonate coating buffer ([…] pH 9.6). 100 μl of this solution was added to each well of a 96 well plate and incubated at 4° C. overnight in a humidified container. The plate was then washed three times with wash buffer (0.01M PBS pH 7.2, 0.05% Tween-20) and then three times with 0.01M PBS pH 7.2. The wells were then blocked by adding 200 μL blocking buffer (1% w/v BSA in 0.01M PBS pH 7.2) to each well and incubating the plate at 25° C., in a humidified container, for 1 hour. The antibody was diluted in antibody diluent (1% w/v BSA, 0.05% Tween-20 in 0.01M PBS pH 7.2) sufficient to generate a titration curve covering the ranges 6.00 μg/mL to 0.0578 ng/mL. The wells were incubated with the antibody for 1 hour at 25° C. The plate was then washed as previously described. 100 μL of Anti-IgG H+L antibody HRP conjugate (Zymed, Cat No: 81-71200) at 1:2000 in antibody diluent was used to detect bound AB197 and AB103. 100 μL of Anti-murine immunoglobulin antibody HRP conjugate (Dako, Cat No: P0260) at 1:2000 in antibody diluent was used to detect bound AB164. Wells with antibody diluent only were used to measure the background absorbance. After incubation at 25° C., in a humidified container, for 1 hour the plate was washed again as previously described. 100 μL TMB substrate solution (Zymed, Cat No: 00-2023) was added to each well and the colour allowed to develop for 4 min. 100 μL of 1M HCl was added to terminate the colour development reaction and absorbance was determined at 450 nm (ref. 620 nm)

[3] = target: T2, rat MOG (myelin-oligodendrocyte glycoprotein) (rat, UniProt Q63345 28-245); experiment: Western blot on rat spinal cord lysate
T2 construct: mature; Endogenous protein in cleared rat spinal cord lysate, run on SDS-PAGE and blotted; It was identified only by its size
T2 sequence (looked up): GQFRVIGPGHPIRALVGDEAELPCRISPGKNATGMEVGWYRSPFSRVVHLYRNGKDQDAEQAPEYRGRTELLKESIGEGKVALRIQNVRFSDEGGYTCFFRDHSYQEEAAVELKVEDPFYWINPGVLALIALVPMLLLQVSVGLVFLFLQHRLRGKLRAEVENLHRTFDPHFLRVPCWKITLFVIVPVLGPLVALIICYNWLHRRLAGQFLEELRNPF
Method: The ability of AB138 to retain binding to the antigen of M26, rat MOG (myelin-oligodendrocyte glycoprotein), was investigated by Western Blot. 130 mg of rat spinal cord (IMVS, Australia) was homogenized in 1.8 ml CelLytic M Cell Lysis Reagent (SIGMA, C2978) and incubated for 30 minutes at 4° C. Further homogenization was performed by drawing the lysate through a 27 g ½ needle several times followed by centrifugation at 4° C. and 13000 g for 30 minutes. The pellet and supernatant was diluted into SDS-PAGE sample buffer (125 mM Tris-HCl pH 6.8, 5% SDS, 0.25% bromophenol blue, 25% glycerol). Along with this 200 μl CHOK1SV cells at 1×10⁶ viable cells per ml were spun down at 13000×g at 4° C. for 1 minute and resuspended in 200 μl CelLytic M Cell Lysis Reagent (SIGMA). Following centrifugation at 4° C. and 13000×g for 30 minutes the supernatant was mixed with the appropriate amount of SDS-PAGE sample buffer. All samples, along with a sample of molecular weight markers, were run on a 4-20% Novex pre-cast gel (Invitrogen, Australia) for 2 hours at 120V. Proteins were then transferred to PVDF (BioRad, Australia) using a western blot apparatus in 1×Tris-Glycine Buffer with 20% methanol (BioRad, Cat 161+-0771) at 4° C. at 250 mA for 2 hours. […] Following washing, bound antibody was detected using the ECL Western Blotting Analysis System, (Amersham Biosciences Cat: RPN2109). […]

T1 sequence (P01375 77-233 limits assumed): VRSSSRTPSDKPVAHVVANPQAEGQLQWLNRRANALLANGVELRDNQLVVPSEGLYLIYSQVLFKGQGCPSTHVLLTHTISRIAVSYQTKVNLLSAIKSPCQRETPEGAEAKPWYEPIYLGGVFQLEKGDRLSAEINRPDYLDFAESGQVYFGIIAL

Row | Binder | EC-50 (µg/ml), neutralisation of TNF-α-induced L-929 cell cytotoxicity [1] [µg/mL] | EC50 [2] [µg/mL] | binding result [3]
1 | murine monoclonal antibody AB164 (antibody, V domains shown, Fully murine antibody from a hybridoma) VH: QVQLQQSGAELVRPGTSVKVSCKASGYAFTNYLIEWVKQRPGQGLEWIGVINPGSGSTNYNEKFKDKATLTADKSSSTAYMQLSSLTSDDSAVYFCVRDYGYDGMDYWGQGTSVTVS VL: DIVLTQSPASLAVSLGQRATISCRASKSVSTSGYSYMHWYQQKPGQPPKLLIYLASNLESGVPARFSGSGSGTDFTLNIHPVEEEDAATYYCQHSRELPLTFGAGTKLELKR | 0.1 | 0.45 | 
2 | engineered monoclonal antibody AB197 (antibody, V domains shown) VH: QVQLVQSGAELKKPGASVKVSCKASGYAFTNYLIEWVRQPPGQGLEWIGVINPGSGSTNYNEKFKDKATLTADKSSSTAYMELSSLRPEDTAVYYCARDYGYDGMDYWGQGTLVTVS VL: ELVMTQSPATLSLSPGERATVSCRASKSVSTSGYSYMHWYQQKPGQAPRLLIYLASNLESGVPARFSGSRSGTDFTLTISSLEPEDFAVYYCQHSRELPLTFGQGTKLEIKR | 0.41 | 0.68 | 
3 | AB103 (anti-TNFα murine variable region-human constant region chimera) (antibody, V domains shown) VH: QVQLQQSGAELVRPGTSVKVSCKASGYAFTNYLIEWVKQRPGQGLEWIGVINPGSGSTNYNEKFKDKATLTADKSSSTAYMQLSSLTSDDSAVYFCVRDYGYDGMDYWGQGTSVTVSS VL: DIVLTQSPASLAVSLGQRATISCRASKSVSTSGYSYMHWYQQKPGQPPKLLIYLASNLESGVPARFSGSGSGTDFTLNIHPVEEEDAATYYCQHSRELPLTFGAGTKLELKR | 0.1 | 0.19 | 
4 | AB138 (MOG specific marmoset derived variable region-human constant region chimera) (antibody, human IgG1, kappa, V domains shown, Chimeric antibody with the variable regions of the marmoset anti-MOG antibody (M26) and human IgG1/kappa constant regions) VH: QVQLVQSGAEVKKPGASVKVSCKASGYTFTSYAISWARQPPGQGLEWMGAFDPEYGSTTYAQKFQGRVTMTADTSTSTAYMELSSLRPEDTAVYYCARDVNFGNYFDYWGQGTLVTVSS VL: ELVMTQSPATLSLSPGERATVSCRAGQSVSYYLAWYQQKPGQAPRLLIYGASTRATGIPARFSGSRSGTDFTLTISSLEPEDFAVYYCQQYSSWPPTFGQGTKLEIKR |  |  | binds
